This passage reports IC50 results from publication PMC3307390 (Journal of Immunology (Baltimore, Md. : 1950), 2010).

Peptide text beside a SMILES is read from it.

The target in one assay is DQA1*0501/DQB1*0201 (Homo sapiens, UniProt P01909+P01920, A45G/A70V/D89A/E106A/E77G/E98D/H199R/L107V/N214S/P84L/P87L/T103K/T109R/T172A/T60S/V78E/V99I/Y58L/Y62S/Y69I/Y79F). The assay is described as follows: biochemical.
A further assay deals with DQA1*0102/DQB1*0602 (Homo sapiens, UniProt P01909+P01920, A157G/A45G/C70R/E118A/E183D/E77G/F83G/G63E/H151Q/H199R/H252R/H253Q/I129T/I235V/I88M/INS77G/K197Q/L117V/L119F/L178F/L71W/L74F/L85Q/L91A/L98M/N214S/P87R/Q116E/Q76K/R102G/R240Q/R75S/R78G/S102Y/S185I/S41F/S97I/T121G/T122I/T172A/T86R/V229M/V68A/V73E/Y34C/Y41F/Y58L). Description: biochemical. In kind it is binding.
In the next assay the target is DQA1*0101/DQB1*0501 (Homo sapiens, UniProt P01909+P01920, A157S/A45G/A70V/C70R/D89V/E106S/E118A/E183D/E77G/F83G/G63E/H151Q/H199R/H252R/H253Q/I129T/I235V/I88M/INS77G/K197Q/L107V/L117V/L119Y/L178F/L71W/L74F/L85Q/L91A/L98M/M46L/N214S/P87R/Q116E/Q256R/Q57E/Q76K/R102G/R240Q/R75S/R78G/S102Y/S185I/S41F/S97I/T103A/T109R/T121G/T122I/T172A/T86R/V148I/V68A/V73E/Y34C/Y58G/Y62H). The assay is described as follows: biochemical. The format is binding.

In assay [1] the target is HLA-DQ DQA1*0301/DQB1*0302 (human (endogenous in EBV-transformed cell line Preiss)). Description: radioligand binding.
Assay [2] has as its target HLA-DQ DQA1*0501/DQB1*0201 (human (endogenous in EBV-transformed cell line VAVY)). The assay is described as follows: radioligand binding.
The target in assay [3] is HLA-DQ DQA1*0101/DQB1*0501 (human (endogenous in EBV-transformed cell line LG2)). The assay is described as follows: radioligand binding.

In turn, `CC[C@H](C)[C@H](NC(=O)[C@H](CO)NC(=O)[C@H](CCC(=O)O)NC(=O)[C@H](C)NC(=O)[C@H](CCC(=O)O)NC(=O)[C@H](CCSC)NC(=O)[C@H](CCC(N)=O)NC(=O)[C@H](CCCCN)NC(=O)[C@@H](NC(=O)[C@H](CC(=O)O)NC(=O)[C@H](CCC(=O)O)NC(=O)[C@H](CCSC)NC(=O)[C@H](C)NC(=O)[C@H](CCC(N)=O)NC(=O)[C@H](CC(=O)O)NC(=O)[C@H](CCC(=O)O)NC(=O)[C@@H](N)[C@@H](C)O)[C@@H](C)CC)C(=O)N[C@@H](CO)C(=O)O` displayed an IC50 on DQA1*0501/DQB1*0201 of 0.439 µM.
`CC[C@H](C)[C@H](N)C(=O)N[C@@H](CC(N)=O)C(=O)N[C@@H](CCC(=O)O)C(=O)N1CCC[C@H]1C(=O)N[C@H](C(=O)N[C@@H](C)C(=O)N[C@@H](C)C(=O)N[C@@H](C)C(=O)N[C@H](C(=O)N[C@@H](C)C(=O)N[C@@H](Cc1ccc(O)cc1)C(=O)NCC(=O)N[C@@H](CC(C)C)C(=O)N[C@@H](CC(=O)O)C(=O)N[C@@H](CCCNC(=N)N)C(=O)O)[C@@H](C)CC)[C@@H](C)O` (H-INEPTAAAIAYGLDR-OH) returned an IC50 against DQA1*0102/DQB1*0602 of 0.0063 µM.
Take `CC(C)C[C@H](NC(=O)[C@@H](NC(=O)[C@H](Cc1c[nH]cn1)NC(=O)[C@H](CO)NC(=O)[C@H](Cc1ccccc1)NC(=O)[C@H](CO)NC(=O)CNC(=O)CNC(=O)[C@H](CC(C)C)NC(=O)[C@H](Cc1ccc(O)cc1)NC(=O)[C@H](CCCNC(=N)N)NC(=O)[C@H](Cc1ccc(O)cc1)NC(=O)[C@H](CC(C)C)NC(=O)[C@@H]1CCCN1)C(C)C)C(=O)O`: on DQA1*0101/DQB1*0501, the IC50 worked out at 2.46 µM.
As for RMMEYGTTMVSYQPL, the IC50 in assay [1] was determined as 0.185 µM.
With TPTEKDEYCARVNH [H. sapiens B2-m peptide …], the IC50 in assay [1] worked out at 29.5 µM.
In turn, TEDQAMEDIKQMEAESIS [Bos taurus a-S1 casein peptide …] registered an IC50 in assay [2] of 0.439 µM.
In assay [1], DCLLCAYSIEFGTNISKEHD [Gallus gallus ovomucoid peptide …] displayed an IC50 of 0.146 µM.
For PLYRYLGGSFSHVL [C. trachomatis enolase peptide …], in assay [3], the IC50 amounted to 2.46 µM.
As for FDRSTKVIDFHYPNE, the IC50 in assay [1] turned out to be 3.96 µM.
Turning to KPVSKMRMATPLLMQALP [Homo sapiens Ii chain peptide …], the IC50 in assay [2] worked out at 0.03 µM.
